US20230078173A1 (ELIXIRON IMMUNOTHERAPEUTICS HONG KONG, published 2023)

Tests used:
[1] = target: PD-L1 on PD-L1-presenting U2OS bioassay cells (UniProt Q9NZQ7 19-290); test: cell-based or functional assay
[2] = target: T1, recombinant human PD-L1-mFc fusion protein (human, UniProt Q9NZQ7 19-238); test: competition ELISA, PD-L1 immobilised, competitor biotin-PD-1-Fc (30 µg/mL)
T1 construct: also called hPD-L1; huPD-L1
Experimental: To test the competition activity, serial dilutions of anti-PD-L1 or anti-PD-L1/IL10 fusion proteins were added.
A recombinant human PD-L1-mFc fusion protein (1 μg/mL), recombinant cynomolgus PD-L1 (1 μg/mL; Sino Biological), or an IL10Rα-Fc fusion protein (1 μg/mL, R&D Systems) were immobilized on 96 well microtiter plate at a concentration of 1 μg/ml in Coating Solution (SeraCare) overnight at 4° C. The wells were washed with wash solution (0.05% Tween20 in imidazole-buffered saline) and blocked with 1% BSA. Serial dilutions of anti-PD-L1 or anti-PD-L1/IL10 fusion proteins were added to wells. After incubation at 37° C. for 1 hr, the wells were washed with wash solution. Peroxidase-conjugated Goat anti-human kappa Light chain antibody (Sigma) was applied to each well at 37° C. for 1 h incubation. […] After washing, the wells were developed with TMB substrate for 5-10 min at RT and then stopped with 1 N HCl. Thereafter, absorbance was measured at 450 nm and 650 nm. EC50 and IC50 values were calculated using GraphPad Prism7.

[3] = target: T2, recombinant cynomolgus PD-L1 (cynomolgus monkey, UniProt Q9NZQ7 19-238 (human entry)); test: ELISA, cynomolgus PD-L1 immobilised (1 µg/mL)
T2 construct: also called cynoPD-L1; Cynomolgus PD-L1.ECD
T2 sequence (Q9NZQ7 other isoform, or with tags, fused parts or gaps limits assumed): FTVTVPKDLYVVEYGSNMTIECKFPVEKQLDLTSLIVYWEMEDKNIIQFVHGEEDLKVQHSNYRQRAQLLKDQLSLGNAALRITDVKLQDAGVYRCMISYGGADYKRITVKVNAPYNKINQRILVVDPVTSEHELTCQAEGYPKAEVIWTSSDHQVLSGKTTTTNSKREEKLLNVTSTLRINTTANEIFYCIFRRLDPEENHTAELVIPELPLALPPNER
Experimental: (§1) The wells were washed with wash solution (0.05% Tween20 in imidazole-buffered saline) and blocked with 1% BSA. […] After incubation at 37° C. for 1 hr, the wells were washed with wash solution. Peroxidase-conjugated Goat anti-human kappa Light chain antibody (Sigma) was applied to each well at 37° C. for 1 h incubation. […] After washing, the wells were developed with TMB substrate for 5-10 min at RT and then stopped with 1 N HCl. Thereafter, absorbance was measured at 450 nm and 650 nm. EC50 and IC50 values were calculated using GraphPad Prism7.

[4] = target: T1, recombinant human PD-L1-mFc fusion …; test: ELISA, human PD-L1-mFc immobilised (1 µg/mL), anti-human kappa-HRP detection
Experimental: as §1

[5] = target: T3, recombinant human PD-L1-His (human, UniProt Q9NZQ7 19-238); test: BLI (Octet RED96), antibody captured on AHC biosensor, PD-L1-His in solution, 1:1 model;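 further: rates obtained by 1:1 Langmuir fitting of the binding response, using a 2.5 min association phase then a 5 min dissociation phase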
T3 construct: Analyte of the BLI assay; also called hPD-L1
T3 sequence (Q9NZQ7 19-238): as the sequence (Q9NZQ7 other isoform, or with tags, fused parts or gaps limits assumed) above, with T33A, S34A, N62S, Q68R, R82Q, L173F, A185T, I192T, L215H counted along it
Experimental: Rate constants were calculated by curve fitting analyses (1:1 Langmuir model) of binding response with a 2.5-minute association and 5-minute dissociation interaction time.

T1 sequence (Q9NZQ7 19-238): as the sequence (Q9NZQ7 other isoform, or with tags, fused parts or gaps limits assumed) above, with T33A, S34A, N62S, Q68R, R82Q, L173F, A185T, I192T, L215H counted along it
PD-L1 on PD-L1-presenting U2OS bioassay cells, sequence (Q9NZQ7 19-290): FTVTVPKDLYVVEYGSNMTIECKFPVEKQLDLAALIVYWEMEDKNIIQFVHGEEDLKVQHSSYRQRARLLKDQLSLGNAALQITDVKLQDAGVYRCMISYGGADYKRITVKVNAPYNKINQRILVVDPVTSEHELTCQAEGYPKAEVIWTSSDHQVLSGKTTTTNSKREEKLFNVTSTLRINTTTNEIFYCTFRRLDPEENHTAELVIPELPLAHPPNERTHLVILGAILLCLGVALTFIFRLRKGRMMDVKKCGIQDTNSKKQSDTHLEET

IC50, blocking PD-1/PD-L1 signaling (PathHunter PD-1 Signaling Bioassay, U2OS PD-L1 cells + Jurkat PD-1 signaling cells) [1]: 3.18 nM
IC50 [2]: 0.182 nM
EC50 [3]: 0.216 nM
EC50 [4]: 0.0784 nM
Kd [5]: 14.4 nM
koff [5]: 0.00679 s⁻¹
kon [5]: 473000 M⁻¹ s⁻¹
B1: PHS102 (antibody, human IgG1, kappa, N297A)
heavy: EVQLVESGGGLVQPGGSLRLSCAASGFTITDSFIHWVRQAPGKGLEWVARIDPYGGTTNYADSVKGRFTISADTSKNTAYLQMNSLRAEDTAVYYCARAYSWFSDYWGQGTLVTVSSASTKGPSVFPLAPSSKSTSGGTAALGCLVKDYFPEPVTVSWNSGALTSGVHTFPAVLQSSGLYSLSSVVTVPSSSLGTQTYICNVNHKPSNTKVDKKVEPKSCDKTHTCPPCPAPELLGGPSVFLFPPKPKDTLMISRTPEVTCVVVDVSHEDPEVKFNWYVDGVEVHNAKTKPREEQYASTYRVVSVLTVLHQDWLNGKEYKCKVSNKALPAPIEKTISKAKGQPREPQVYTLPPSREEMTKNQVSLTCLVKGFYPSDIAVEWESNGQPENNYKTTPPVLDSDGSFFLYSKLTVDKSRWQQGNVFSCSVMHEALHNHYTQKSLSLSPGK
light: DIQMTQSPSSLSASVGDRVTITCRAGQDVYKAVAWYQQKPGKAPKLLIYWSTNLYSGVPSRFSGSGSGTDFTLTISSLQPEDFATYYCQQGSTWPLTFGQGTKVEIKRTVAAPSVFIFPPSDEQLKSGTASVVCLLNNFYPREAKVQWKVDNALQSGNSQESVTEQDSKDSTYSLSSTLTLSKADYEKHKVYACEVTHQGLSSPVTKSFNRGEC
